# ± gives the uncertainty stated by the source.
# Assay: self-splicing fitness, log relative to wild type (ln ratio); higher = more splicing; Tetrahymena group I intron in knt gene, E. coli kanamycin selection, DiMSum; sequences stand for … in CUCUCU…GGAGGGAAAAGUUAUCAGGCAUGCACCUGGUAGCUAGUCUUUAAACCAAUAGAUUGCAUCGGUUUAAAAGGCAAGACCGUCAAAUUGCGGGAAAGGGGUCAACAGCCGUUCAGUACCAAGUCUCAGGGGAAACUUUGAGAUGGCCUUGCAAAGGGUAUGGUAAUAAGCUGACGGACAUGGUCCUAACCACGCAGCCAAGUCCUAAGUCAACAGAUCUUCUGUUGAUAUGGAUGCAGUUCACAGACUAAAUGUCGGUCGGGGAAGAUGUAUUCUUCUCAUAAGAUAUAGUCGGACCUCUCCUUAAUGGGAGCUAGCGGAUGAAGUGAUGCAACACUGGAGCCGCUGGGAACUAAUUUGUAUGCGAAAGUAUAUUGAUUAGUUUUGGAGUACUCGUGGUCG
# Summary of the method: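 Pooled colonies went to amplicon sequencing on an Illumina HiSeq 2500 after six replicate transformations. The plates were LB agar with 100 μg/mL carbenicillin, 50 μM IPTG and 0.2% rhamnose, with or without 25 μg/mL kanamycin, incubated overnight at 37°C or 30°C. The E. coli BL21(DE3) library had all eight P1ex-region intron nucleotides randomised, the intron placed in the knt kanamycin-resistance gene on pET-22b(+). DiMSum fitness is the error-weighted combination of replicate fold changes, kanamycin against none, normalised to wild type.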
Sequence,self-splicing fitness (ln) (30 °C),self-splicing fitness (ln) (37 °C)
AUGAAGCAAUAUUACGCUGC,-2.7 ± 0.24,-2.42 ± 0.44
AAGUAGCAAUAUUACGUGGA,-3.83 ± 0.26,-2.14 ± 0.16
ACCUAGCAAUAUUACGAGUU,-2.28 ± 0.087,-1.24 ± 0.1
GCUAAGCAAUAUUACGCCGC,-2.72 ± 0.48,–
UAUAAGCAAUAUUACGAAGG,-2.23 ± 0.21,-1.19 ± 0.23
AACCAGCAAUAUUACGCCGA,-0.252 ± 0.11,-0.169 ± 0.11
AGGGAGCAAUAUUACGUCAA,-3.37 ± 0.44,-2.52 ± 0.45
UGGAAGCAAUAUUACGGUCG,-0.0238 ± 0.081,0.332 ± 0.11
CCCCAGCAAUAUUACGCCAA,-2.64 ± 0.17,-2.7 ± 0.19
GCCGAGCAAUAUUACGCGCG,-2.53 ± 0.25,–
CCGUAGCAAUAUUACGCAAU,-3.31 ± 0.24,-2.05 ± 0.22
UGGUAGCAAUAUUACGCCUU,-0.729 ± 0.15,0.426 ± 0.18
GGGUAGCAAUAUUACGCGUU,-0.304 ± 0.091,-0.0887 ± 0.12
GCCUAGCAAUAUUACGAUUG,-2.49 ± 0.23,-2.32 ± 0.26
CACUAGCAAUAUUACGGUGC,-2.24 ± 0.22,-2.43 ± 0.35
AUGCAGCAAUAUUACGAAGG,-3.78 ± 0.37,-2.89 ± 0.41
GCAGAGCAAUAUUACGGCUG,-2.42 ± 0.25,–
AACAAGCAAUAUUACGGUUA,-0.694 ± 0.058,-0.134 ± 0.064
CGCGAGCAAUAUUACGUACG,-2.6 ± 0.24,-1.5 ± 0.27
GAAAAGCAAUAUUACGGUUA,-0.324 ± 0.062,-0.0141 ± 0.067

Sequence,self-splicing fitness (ln) (30 °C),self-splicing fitness (ln) (37 °C)
ACAAAGCAAUAUUACGCACG,-1.96 ± 0.12,-0.724 ± 0.1
ACUGAGCAAUAUUACGUCAU,-4.08 ± 0.39,-2.26 ± 0.19
CUUGAGCAAUAUUACGGGAU,-2.99 ± 0.32,-2.63 ± 0.31
ACUUAGCAAUAUUACGCACC,-1.99 ± 0.23,0.826 ± 0.29
ACGGAGCAAUAUUACGCGCU,-3.23 ± 0.3,-1.17 ± 0.21
GUAGAGCAAUAUUACGUGUU,-3.68 ± 0.21,-2.04 ± 0.19
AAGGAGCAAUAUUACGCCAG,-2.29 ± 0.26,-3.1 ± 0.35
UCAUAGCAAUAUUACGUAUU,-2.48 ± 0.22,-2.85 ± 0.27
UGUUAGCAAUAUUACGCGGA,-0.526 ± 0.082,-0.401 ± 0.087
GGCCAGCAAUAUUACGCAUU,-0.554 ± 0.05,0.109 ± 0.067
GGUAAGCAAUAUUACGAUUU,-0.236 ± 0.1,-0.0101 ± 0.14
AGGGAGCAAUAUUACGCCCG,-3.31 ± 0.5,-0.737 ± 0.49
CGUCAGCAAUAUUACGUACG,-3.6 ± 0.43,-2.97 ± 0.37
GGUAAGCAAUAUUACGUCGU,-1 ± 0.11,-0.732 ± 0.12
GAACAGCAAUAUUACGGUUC,-3 ± 0.14,-2.93 ± 0.22
CGUGAGCAAUAUUACGUUGG,-2.62 ± 0.12,-1.45 ± 0.11
CUGGAGCAAUAUUACGCGUC,-3.41 ± 0.27,-1.76 ± 0.27
CGCAAGCAAUAUUACGCACA,-0.694 ± 0.096,-0.825 ± 0.1
AUCAAGCAAUAUUACGAGCU,-1.24 ± 0.084,-0.596 ± 0.1

# Source: the supplement of paper PMC7877785
